In CN110538321A (JIANGSU HENGRUI MEDICINE CO; SHANGHAI HENGRUI …, dated 2019):
Values belong to the binder of their own block, whether it stands above or below them.

What was measured:
[1] = target: T1, 人CD47蛋白 (Leukocyte surface antigen CD47) (human, UniProt Q08722 19-141); assay: CD47 binding ELISA, hybridoma screening
T1 construct: extracellular domain; The assays say only 'CD47'; also called human CD47

[2] = target: T1, 人CD47蛋白 (Leukocyte surface antigen CD47); assay: Biacore (SPR)
[3] = target: T1, 人CD47蛋白 (Leukocyte surface antigen CD47); assay: Biacore (SPR), reference antibody of the comparison

T1 sequence (Q08722 19-141 limits assumed): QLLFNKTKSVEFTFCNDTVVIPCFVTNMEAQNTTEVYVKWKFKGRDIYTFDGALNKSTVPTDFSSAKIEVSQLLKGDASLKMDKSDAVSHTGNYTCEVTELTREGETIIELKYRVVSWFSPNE

B1: 杂交瘤克隆167鼠源抗体 (antibody, V domains shown)
VH: QVQLQQPGAELVRPGSSVKLSCKASGYTFTSYWMHWVKQRPIQGLEWVGNIDPSDSETHYNQKFKDKATLTVDKSSSTAYMQLSSLTSEDSAVYYCARWGYLGRSAMDYWGQGTSVTVSS
VL: DVQITQSPSYLAASPGETITINCRTSKSISKFLAWYQEKPGKTHKLLIYSGSTLQSGIPSRFSGSGSGTDFTLTISSLEPEDFAMYYCQQHNEYPWTFGGGTKLEIK
notes: Mouse hybridoma antibody; also called 鼠源抗体167
- binding result [1]: binds

B2: hu055-5 (antibody, human IgG4 S228P, kappa, F234A L235A, V domains shown)
VH: QVQLVQSGAEVKKPGASVKVSCKASGYTFTSSYLHWVRQAPGQRLDWIGWIYPESGNTKYNERFKGRATLTADTSASTAYMELSSLRSEDTAVYYCARRGDVFFAYWGQGTTVTVSS
VL: DIVMTQSPDSLAVSLGERATINCKSSQSLLTSGKQKNYLTWYQQKPGQPPKLLIYWASTRESGVPDRFSGSGSGTDFTLTISSLQAEDVAVYYCQNDYSYPLTFGQGTKLEIKR
- binding result [2]: binds

B6: 嵌合抗体ch-055 (antibody, V domains shown)
VH: QVLLQQSGPELVQPGASVKISCKASGYSFTSSYLHWVKQRPGQGLDWIGWIYPESGNTKYNERFKGKATLTADTSSSTAYMQLSSLTSEDSAVYYCSRRGDVFFAYWGQGTTLTVSS
VL: DIVMTQSPSYLTVTAGEKVTMSCKSSQSLLTSGKQKNYLTWYQQKPGQPPKLLIYWASTRESGVPERFRGSGSGTDFTLTISSVQAEDLAVYYCQNDYSYPLTFGAGTKLELN
notes: Chimeric antibody of clone 055
- binding result [3]: binds

Second part, the binder after the results:

- KD ratio relative to hu167-4 [2]: 1.3
B3: hu167-31 (antibody, V domains shown)
VH: QVQLVQSGAEVKKPGASVKVSCKASGYTFTSYWMHWVRQAPGQGLEWMGNIDPSDSETHYNQKFKDRVTMTRDTSISTAYMELSRLRSDDTAVYYCARWGYLGRSAMDYWGQGTTVTVSS
VL: DVQMTQSPSSLSASVGDRVTITCRTSKSISKFLAWYQQKPGKAPKLLIYSGSTLQSGVPSRFSGSGSGTDFTLTISSLQPEDFATYYCQQHNEYPWTFGGGTKVEIK

- KD ratio relative to hu167-4 [2]: 1.2
B4: hu167-32 (antibody, V domains shown)
VH: QVQLVQSGAEVKKPGASVKVSCKASGYTFTSYWMHWVRQAPGQGLEWMGNIDPSDSETHYNQKFKDRVTMTRDTSISTAYMELSRLRSDDTAVYYCARWGYLGRSAMDYWGQGTTVTVSS
VL: DIQITQSPSSLSASVGDRVTITCRTSKSISKFLAWYQQKPGKAPKLLIYSGSTLQSGVPSRFSGSGSGTDFTLTISSLQPEDFATYYCQQHNEYPWTFGGGTKVEIK

- KD ratio relative to hu167-4 [2]: 0.98
B5: hu167-33 (antibody, human IgG4 S228P, kappa, F234A L235A, V domains shown)
VH: QVQLVQSGAEVKKPGASVKVSCKASGYTFTSYWMHWVRQAPGQGLEWMGNIDPSDSETHYNQKFKDRVTMTRDTSISTAYMELSRLRSDDTAVYYCARWGYLGRSAMDYWGQGTTVTVSS
VL: DVQITQSPSSLSASVGDRVTITCRTSKSISKFLAWYQQKPGKAPKLLIYSGSTLQSGVPSRFSGSGSGTDFTLTISSLQPEDFATYYCQQHNEYPWTFGGGTKVEIKR

- binding result [1]: binds
B7: 杂交瘤克隆055鼠源抗体 (antibody, V domains shown)
VH: QVLLQQSGPELVQPGASVKISCKASGYSFTSSYLHWVKQRPGQGLDWIGWIYPESGNTKYNERFKGKATLTADTSSSTAYMQLSSLTSEDSAVYYCSRRGDVFFAYWGQGTTLTVSS
VL: DIVMTQSPSYLTVTAGEKVTMSCKSSQSLLTSGKQKNYLTWYQQKPGQPPKLLIYWASTRESGVPERFRGSGSGTDFTLTISSVQAEDLAVYYCQNDYSYPLTFGAGTKLELN
notes: Mouse hybridoma antibody; also called 鼠源抗体055
